T1: human TNFR2 on TNFR2-CHO-K1 cells (human, UniProt P20333 23-461)
T1 construct: CHO cells overexpressing human TNFR2 by lentiviral transduction
T1 sequence: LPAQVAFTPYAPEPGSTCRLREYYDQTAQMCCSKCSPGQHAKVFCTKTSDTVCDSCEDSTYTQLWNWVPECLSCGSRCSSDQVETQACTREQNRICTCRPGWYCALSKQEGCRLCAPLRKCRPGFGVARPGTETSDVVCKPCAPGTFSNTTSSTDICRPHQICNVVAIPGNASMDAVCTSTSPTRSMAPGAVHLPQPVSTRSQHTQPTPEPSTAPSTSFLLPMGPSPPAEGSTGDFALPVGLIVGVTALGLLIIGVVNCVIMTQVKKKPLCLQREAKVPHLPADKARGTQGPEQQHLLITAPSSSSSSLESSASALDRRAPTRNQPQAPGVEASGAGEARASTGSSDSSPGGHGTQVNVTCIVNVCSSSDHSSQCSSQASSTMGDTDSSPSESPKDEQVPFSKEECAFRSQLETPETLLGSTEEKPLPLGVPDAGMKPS

T2: Human TNFR2 His (manufacturer: SINO, CAT: 10417-H08H) (human, UniProt P20333 23-257)
T2 construct: Bought protein; also called human TNFR2 protein; TNFR2 protein; not shown: His tag
T2 sequence (looked up): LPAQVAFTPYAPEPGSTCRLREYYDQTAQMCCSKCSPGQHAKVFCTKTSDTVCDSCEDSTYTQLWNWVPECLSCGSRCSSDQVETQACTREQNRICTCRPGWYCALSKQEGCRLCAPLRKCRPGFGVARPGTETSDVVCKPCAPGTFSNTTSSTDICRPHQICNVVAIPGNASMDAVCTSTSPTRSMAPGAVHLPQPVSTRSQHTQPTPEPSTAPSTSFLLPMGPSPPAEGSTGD

T3: Human TNFR2 mFc (manufacturer: Kaixia, CAT: TN-HM3R2) (human, UniProt P20333 23-257)
T3 construct: treated as one molecule; also called Human TNFR2 mFC (KaKa, CAT: TNF-HM3R2); human TNFR2 mFC protein; not shown: mFc part
T3 sequence (looked up): T2 sequence (looked up)

B1: TR-F (bispecific antibody, human IgG1, kappa)
light: EVQLVQSGAEVKKPGATVKISCKVSGYSITDYLLHWVQQAPGKCLEWMGWIDPEDAKTKYGQKFQSRVTITADTSTDTAYMELSSLRSEDTAVYYCAANSGTGTMDAWGQGTLVTVSSGGGGSGGGGSGGGGSDIVMTQSPATLSVSPGERATLSCKASQNVGSNVDWYQQKPGQSPRVLIYKASIRYTGIPARFSGSGSGTEFTLTISILQSEDFAVYFCMQSKSYPITFGCGTKLEIKGGGGSGGGGSGGGGSDIVMTQSPPTLSLSPGERATLSCRSSKSLLHSNGNTYLYWFQQKPGQSPQLLIYRMSNLASGIPDRFSGSGSGTDFTLTISRLEPEDFAVYYCMQHLEYPFTFGQGTKLEIKRTVAAPSVFIFPPSDEQLKSGTASVVCLLNNFYPREAKVQWKVDNALQSGNSQESVTEQDSKDSTYSLSSTLTLSKADYEKHKVYACEVTHQGLSSPVTKSFNRGEC
heavy: not shown
notes: also called antibody TR-F
B2: anti-TNFR2 control antibody (SEQ ID NO: 52 and SEQ ID NO: 53, constant region of human IgG1 SEQ ID NO: 54 and SEQ ID NO: 55) (antibody, V domains shown)
VH: EVQLVQSGAEVKKPGATVKISCKVSGYSITDYLLHWVQQAPGKGLEWMGWIDPEDAKTKYGQKFQSRVTITADTSTDTAYMELSSLRSEDTAVYYCAANSGTGTMDAWGQGTLVTVSS
VL: DIVMTQSPATLSVSPGERATLSCKASQNVGSNVDWYQQKPGQSPRVLIYKASIRYTGIPARFSGSGSGTEFTLTISILQSEDFAVYFCMQSKSYPITFGQGTKLEIKR
notes: also called positive control 1
B3: TR-G (bispecific antibody, human IgG1, kappa)
light: DIVMTQSPPTLSLSPGERATLSCRSSKSLLHSNGNTYLYWFQQKPGQSPQLLIYRMSNLASGIPDRFSGSGSGTDFTLTISRLEPEDFAVYYCMQHLEYPFTFGQGTKLEIKRTVAAPSVFIFPPSDEQLKSGTASVVCLLNNFYPREAKVQWKVDNALQSGNSQESVTEQDSKDSTYSLSSTLTLSKADYEKHKVYACEVTHQGLSSPVTKSFNRGECGGGGSGGGGSEVQLVESGGGLVQPGGSLRLSCAASGSRLDYYAVAWFRQAPGKEREEVSCITYSGGSTNYAESVKGRFTISRDNSKNTLYLQMNSLRAEDTAVYYCTTEPYGSSCPLSGYDTWGQGTLVTVSS
heavy: not shown
notes: also called antibody TR-G
B4: TR-D (bispecific antibody, human IgG1, kappa)
light: DIVMTQSPPTLSLSPGERATLSCRSSKSLLHSNGNTYLYWFQQKPGQSPQLLIYRMSNLASGIPDRFSGSGSGTDFTLTISRLEPEDFAVYYCMQHLEYPFTFGQGTKLEIKRTVAAPSVFIFPPSDEQLKSGTASVVCLLNNFYPREAKVQWKVDNALQSGNSQESVTEQDSKDSTYSLSSTLTLSKADYEKHKVYACEVTHQGLSSPVTKSFNRGEC
heavy: not shown
notes: also called antibody TR-D
B5: TR-E (bispecific antibody, human IgG1, kappa)
light: DIVMTQSPPTLSLSPGERATLSCRSSKSLLHSNGNTYLYWFQQKPGQSPQLLIYRMSNLASGIPDRFSGSGSGTDFTLTISRLEPEDFAVYYCMQHLEYPFTFGQGTKLEIKRTVAAPSVFIFPPSDEQLKSGTASVVCLLNNFYPREAKVQWKVDNALQSGNSQESVTEQDSKDSTYSLSSTLTLSKADYEKHKVYACEVTHQGLSSPVTKSFNRGECGGGGSGGGGSEVQLVQSGAEVKKPGATVKISCKVSGYSITDYLLHWVQQAPGKCLEWMGWIDPEDAKTKYGQKFQSRVTITADTSTDTAYMELSSLRSEDTAVYYCAANSGTGTMDAWGQGTLVTVSSGGGGSGGGGSGGGGSDIVMTQSPATLSVSPGERATLSCKASQNVGSNVDWYQQKPGQSPRVLIYKASIRYTGIPARFSGSGSGTEFTLTISILQSEDFAVYFCMQSKSYPITFGCGTKLEIK
heavy: not shown
notes: also called antibody TR-E
B6: TR-H (bispecific antibody, human IgG1, kappa)
light: EVQLVESGGGLVQPGGSLRLSCAASGSRLDYYAVAWFRQAPGKEREEVSCITYSGGSTNYAESVKGRFTISRDNSKNTLYLQMNSLRAEDTAVYYCTTEPYGSSCPLSGYDTWGQGTLVTVSSGGGGSGGGGSGGGGSDIVMTQSPPTLSLSPGERATLSCRSSKSLLHSNGNTYLYWFQQKPGQSPQLLIYRMSNLASGIPDRFSGSGSGTDFTLTISRLEPEDFAVYYCMQHLEYPFTFGQGTKLEIKRTVAAPSVFIFPPSDEQLKSGTASVVCLLNNFYPREAKVQWKVDNALQSGNSQESVTEQDSKDSTYSLSSTLTLSKADYEKHKVYACEVTHQGLSSPVTKSFNRGEC
heavy: not shown
notes: also called antibody TR-H
B7: TR-A (bispecific antibody, human IgG1, kappa)
light: B4 light
heavy: not shown
notes: also called antibody TR-A
B8: TR-B (bispecific antibody, human IgG1, kappa)
light: B4 light
heavy: not shown
notes: also called antibody TR-B
B9: TR-C (bispecific antibody, human IgG1, kappa)
light: B4 light
heavy: not shown
notes: also called antibody TR-C
B10: anti-CCR8 control antibody (variable region SEQ ID NO: 9 and SEQ ID NO: 13, constant region of human IgG1 SEQ ID NO: 54 and SEQ ID NO: 55) (antibody, V domains shown)
VH: EVQLVESGGGLVQPGGSLRLSCAASGFTFNTNAMNWVRQAPGKGLEWVGRIRTKSNNYATYYAESVRDRFTISRDDSKNSLYLQMNSLKTEDTAMYYCVRGGYGIRGEYTMDYWGQGTLVTVSS
VL: DIVMTQSPPTLSLSPGERATLSCRSSKSLLHSNGNTYLYWFQQKPGQSPQLLIYRMSNLASGIPDRFSGSGSGTDFTLTISRLEPEDFAVYYCMQHLEYPFTFGQGTKLEIKR
B11: Positive control (anti-TNFR2; antibody sequence variable region consists of SEQ ID NO: 25) (VHH, not shown: a dimerising Fc or GST)
VHH: EVQLVESGGGLVQPGGSLRLSCAASGSRLDYYAVAWFRQAPGKEREEVSCITYSGGSTNYAESVKGRFTISRDNSKNTLYLQMNSLRAEDTAVYYCTTEPYGSSCPLSGYDTWGQGTLVTVSS
notes: also called positive control 2

target: T1, human TNFR2 on TNFR2-CHO-K1 cells; assay: flow cytometry on TNFR2-CHO-K1 cells, APC anti-human IgG Fc secondary antibody, Average-APC
Method: The purified antibodies were diluted to 120 nM with FACS buffer, using this as the starting concentration, and then diluted by 6-fold gradient (7 gradients in total). […] The cells were incubated at 4° C. for 60 min, then washed twice with excess FACS buffer. Resuspended the cells in 100 μL FACS buffer and added fluorescent secondary antibody APC (Biolegend, Cat: 109306) against human IgG FC to the sample. It was incubated for 30 min and washed twice with excess FACS buffer. Resuspended the cells in flow buffer and then detected and analyzed using a flow cytometer.

Row | EC50 (read off the curve) | Binder
1 | ~0.5 nM | B1
2 | ~0.3 nM | B2
3 | ~1 nM | B3
4 | ~0.1 nM | B4

target: T2, Human TNFR2 His (manufacturer: SINO, …); assay: bridging flow cytometry: antibody on CCR8-CHO-K1 cells captures human TNFR2 His, FITC anti-His (PBS background 15212)
Method: The cells after adding the sample were incubated at 4° C. for 60 min, and then washed twice with excess FACS buffer. Resuspended the cells in 100 μL FACS buffer and added FITC anti His tag (Abcam, Cat: ab1206) fluorescent secondary antibody carrying FITC to the sample. It was incubated for 30 min and washed twice with excess FACS buffer. Resuspended the cells in flow buffer and then detected and analyzed using a flow cytometer.

Row | Average FITC-A | Binder
5 | 27600 | B1
6 | 61900 | B5
7 | 34200 | B6
8 | 33700 | B3
9 | 40000 | B7
10 | 30300 | B4
11 | 29000 | B8
12 | 89500 | B9

target: T4, human CCR8 on CCR8-CHO-K1 cells (human, UniProt P51685 1-355); assay: flow cytometry on CCR8-CHO-K1 cells, APC anti-human IgG Fc secondary antibody, Average-APC
T4 construct: CHO cells overexpressing human CCR8 by lentiviral transduction
Method: The purified antibodies were diluted to 120 nM with FACS buffer, using this as the starting concentration, and then diluted by 5-fold gradient (6 gradients in total). […] The cells were incubated at 4° C. for 60 min, then washed twice with excess FACS buffer. Resuspended the cells in 100 μL FACS Buffer and Added Fluorescent Secondary antibody APC (Biolegend, Cat: 109306) against human IgG FC to the sample. It was incubated for 30 min and washed twice with excess FACS buffer. Resuspended the cells in flow buffer and then detected and analyzed using a flow cytometer.

Row | binding result | EC50 (read off the curve) | Binder
13 | binds |  | B1
14 |  | ~0.3 nM | B10
15 |  | ~1 nM | B5
16 | binds |  | B6
17 |  | ~0.9 nM | B3
18 | binds |  | B7
19 | binds |  | B4
20 | binds |  | B8
21 |  | ~1 nM | B9

target: T3, Human TNFR2 mFc (manufacturer: Kaixia, …); assay: blocking ELISA: human TNFR2 mFc coated, antibody titrated together with human TNF alpha His (blocked ligand), anti-His detection, OD450
Method: (§1) The coating solution was poured off. Each well was washed with 1×PBST at 300 μL, washed 4 times with a plate washer, and patted dry on a flat paper. It was blocked with 3% skim milk powder at 300 μL/well, and incubated at 37° C. for 1 h. The blocking solution was poured off, washed 4 times with a plate washer, and patted dry on a flat paper. Negative control and positive control were set up. […] The positive control and antibody were diluted diluted to 100 nM with 3% skim milk powder as the starting concentration, and then diluted by 3-fold gradient (11 gradients in total), and a blank well was set up and only the diluent was added. […] The liquid in the well was discarded, washed 4 times with a plate washer, and patted dry on a flat paper. The anti his antibody (Abcam, Cat: ab1187) was diluted with 3% skim milk powder at 1:5000, 100 μL was added to each well, and incubated at 37° C. for 1 h. It was washed 6 times with a plate washer, and patted dry on a flat paper. TMB color developing solution was added at 100 μL/well, and wrapped with aluminum foil. Color development was performed at 37° C. in the dark for 8 min. Termination solution 1M HCl was added to terminate the color development reaction at 100 μL/well. Readings were taken at 450 nm on an ELISA reader.

Row | IC50 (read off the curve) | Binder
22 | ~3 nM | B6
23 | ~2 nM | B11

target: T3, Human TNFR2 mFc (manufacturer: Kaixia, …); assay: as above; remark: another data set of the same source
Method: as §1

Row | IC50 (read off the curve) | Binder
24 | ~2 nM | B11
25 | ~2 nM | B4

— patent US20260055201A1 (SHENGHE CHINA BIOPHARMACEUTICAL, published 2026)
